The labels stand for the following.
T1: His6-MBP-TEV-Cep192 58mer (201–258) (human, UniProt Q8TEP8 201-258)
T1 sequence (looked up): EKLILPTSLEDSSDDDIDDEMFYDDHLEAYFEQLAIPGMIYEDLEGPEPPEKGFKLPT

T2: GST-Plk4 C (580–970) (human, UniProt O00444 580-970)
T2 sequence (looked up): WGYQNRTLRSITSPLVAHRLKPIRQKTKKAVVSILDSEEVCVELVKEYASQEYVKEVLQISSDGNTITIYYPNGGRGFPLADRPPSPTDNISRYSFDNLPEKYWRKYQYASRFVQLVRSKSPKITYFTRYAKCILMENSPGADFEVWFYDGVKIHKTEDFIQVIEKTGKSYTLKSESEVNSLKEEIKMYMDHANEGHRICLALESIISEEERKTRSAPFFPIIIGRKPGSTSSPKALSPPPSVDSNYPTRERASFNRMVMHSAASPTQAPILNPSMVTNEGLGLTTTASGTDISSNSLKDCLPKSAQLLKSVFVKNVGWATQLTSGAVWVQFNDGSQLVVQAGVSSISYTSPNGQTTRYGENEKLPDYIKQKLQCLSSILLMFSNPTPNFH

B1: Alexa 488-conjugated MBP-Cep192-58mer (domain or fragment, human, UniProt Q8TEP8 201-258, looked up)
chain: T1 sequence (looked up)
modifications: also: Alexa Fluor 488 conjugated, sites not given here, MBP fusion
B2: human Plk4 cryptic polo box (CPB, residues 580–808), His6-MBP tag removed (domain or fragment, UniProt O00444 580-808, looked up)
chain: WGYQNRTLRSITSPLVAHRLKPIRQKTKKAVVSILDSEEVCVELVKEYASQEYVKEVLQISSDGNTITIYYPNGGRGFPLADRPPSPTDNISRYSFDNLPEKYWRKYQYASRFVQLVRSKSPKITYFTRYAKCILMENSPGADFEVWFYDGVKIHKTEDFIQVIEKTGKSYTLKSESEVNSLKEEIKMYMDHANEGHRICLALESIISEEERKTRSAPFFPIIIGRKPG
B3: Alexa 488-conjugated MBP-Cep152-60mer (domain or fragment, human, UniProt O94986 1-60, looked up)
chain: MSLDFGSVALPVQNEDEEYDEEDYEREKELQQLLTDLPHDMLDDDLSSPELQYSDCSEDG
modifications: also: Alexa Fluor 488 conjugated, sites not given here, MBP fusion
B4: His6-MBP-TEV-Cep152 60mer (1–60) (domain or fragment, human, UniProt O94986 1-60, looked up)
chain: B3 chain
B5: His6-MBP-TEV-Cep152 (1–217) (domain or fragment, human, UniProt O94986 1-217, looked up)
chain: MSLDFGSVALPVQNEDEEYDEEDYEREKELQQLLTDLPHDMLDDDLSSPELQYSDCSEDGTDGQPHHPEQLEMSWNEQMLPKSQSVNGYNEIQSLYAGEKCGNVWEENRSKTEDRHPVYHPEEGGDEGGSGYSPPSKCEQTDLYHLPENFRPYTNGQKQEFNNQATNVIKFSDPQWNHFQGPSCQGLEPYNKVTYKPYQSSAQNNGSPAQEITGSDT

For test [1], the target named is B2. Nature of the test: fluorescence polarisation.
Test [2] addresses T1, His6-MBP-TEV-Cep192 58mer (201–258). Nature of the test: pull-down.
The target of test [3] is B2. Kind of test: fluorescence polarisation. This is another data set of the same source. (In general: Fluorescence polarisation rises when a labelled molecule tumbles more slowly, as on binding a larger partner.)
For a further test, the target named is T2, GST-Plk4 C (580–970). Kind of test: pull-down.

The results in this text go back to PMC4125498 (Nature structural & molecular biology, 2014).

No end group written: not given here.

As a reminder, the Kd is the concentration at which binding is half-saturated. The low end stands for a tighter complex, the high end for a looser complex. The term IC50 denotes the point on the concentration scale where inhibition reaches its midpoint.

As to B1, the Kd in test [1] is 177 nM.

Consider B2, for which the “stoichiometry N” value in test [2] is ~2 MBP-Cep192-58mer per CPB dimer.

In test [1], B3 registered a Kd of 32 nM.

In test [3], B4 displayed an IC50 of 64 nM. This lies in the double-digit nanomolar range.

Turning to B5, the binding result with GST-Plk4 C (580–970) is “binds”.
